Where no end group is shown, it is not given here.
Test: Percentage content of secondary structure by CD (circular dichroism) spectrum
Assay type: physicochemical
Details: for Percentage content of secondary structure In HEPES: free peptide in HEPES buffer solution (10 mM HEPES-HCl, 150 mM NaCl, pH 7.4, 25° C.); for Percentage content of secondary structure In MeOH: free peptide in methanol (purity 99.5% by mass)

Substance	Percentage content of secondary structure In HEPES [%]	Percentage content of secondary structure In MeOH [%]
KKKKKEQQNAFYEILH (SIMILAR (6)..(12) SEQ ID No.1 EQQNAFY; SIMILAR (6)..(16) SEQ ID No.2 EQQNAFYEILH) [Short-chain peptide 2]	30	84
KKKEQQNAFYEILHKKK (SIMILAR (4)..(14) SEQ ID No.2 EQQNAFYEILH; SIMILAR (4)..(10) SEQ ID No.1 EQQNAFY) [Short-chain peptide 3]	33	100
KKRREQQNAFYEILHKRRKK [Short-chain peptide 6]	35	100
KKRKEQQKKFYKKLHK [Short-chain peptide 8]	16	88
KKKKEQQNAFYEILHKKKK (SIMILAR (5)..(11) SEQ ID No.1 EQQNAFY; SIMILAR (5)..(15) SEQ ID No.2 EQQNAFYEILH) [Short-chain peptide 4]	32	100
Ac-KAAKEQQKAFYKILH [Short-chain peptide 5]	36	92
KKRKEQQNAFYEILHKRRKK [Short-chain peptide 7]	35	100

— US10927188B2, “Method for producing short-chain peptide-immobilized carrier, and short-chain peptide-immobilized carrier” (FUJIFILM Corporation, priority 2015, dated 2021)
